Results taken from article PMC4380410.

T1: CfaRfull-HIS6 (Streptomyces scabies 87-22) (UniProt C9ZEC8)
T1 sequence: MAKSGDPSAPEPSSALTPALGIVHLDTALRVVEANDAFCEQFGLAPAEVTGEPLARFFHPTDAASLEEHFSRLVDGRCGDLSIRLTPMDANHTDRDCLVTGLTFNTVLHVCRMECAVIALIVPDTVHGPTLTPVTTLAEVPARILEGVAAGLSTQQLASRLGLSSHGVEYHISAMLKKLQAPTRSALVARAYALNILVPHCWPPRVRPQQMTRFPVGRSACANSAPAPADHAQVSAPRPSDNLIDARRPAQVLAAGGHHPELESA


Key:
[1] = biological target: T1, CfaRfull-HIS6 (Streptomyces scabies 87-22); assay: EMSA; conditions: LightShift Chemiluminescent EMSA kit per manufacturer; buffer, salt, pH and temperature not stated (protein stored in 20 mM sodium phosphate, 150 mM NaCl, 20% …)
[2] = biological target: CfaR^full-HIS6 (Streptomyces scabies); assay: cross-linking; glutaraldehyde (1 μL of 2.3% w/v) added to 80 pmol purified protein in 20 mM sodium phosphate pH 7.5, 20 μL, 5 min at 37°C; stopped with Tris-HCl pH 8.0; SDS-PAGE (12%), Coomassie staining
[3] = biological target: CfaR^ΔLuxR-HIS6 (Streptomyces scabies); assay: as above
CfaRfull-HIS6 = CfaRfull-HIS6 (Streptomyces scabies 87-22, UniProt C9ZEC8 1-265); assay: EMSA; 0.1 pmol probe, 2 pmol protein; LightShift Chemiluminescent EMSA kit per manufacturer; buffer, salt, pH and temperature not stated (protein stored in 20 mM sodium phosphate, 150 mM NaCl, 20% glycerol, pH 7.8); conditions: protein: recombinant; tags: C-terminal His6; chain copies: 2; blunt

Molecule | binding [1] | binding result (CfaRfull-HIS6) | also measured
GACCTTCGTTCTGTAGCCCTTGTATGGTCGCATTGCCTCCGCAGGTCGACCCCTTTCGGCACCATAGGAGACCCTCTTGGCGAACATCGAATCGACCATCAAGCACATCCTGGTCGACGATCTCTTCATCACTGTGCCG (double strand) [fragment b] | no binding | – | –
CfaR^full-HIS6 (natural protein) | – | – | stoichiometry N [2]: 2
CfaR^ΔLuxR-HIS6 (domain or fragment) | – | – | stoichiometry N [3]: 2
GCACAGGAAGGAGGAGAACCCCTCACCTCGGGCCCTTGGACCCGACACACCCGCAGCGCGTGCGACGGTTCCTGCGCCGGCCGGCCTGACAAACCAGGGCGAGACGCCGCATCTGCGGAACCGGTCGACCCGCAGACGAATCGTGGCCGACGCCAACCCGAATGCGGG (double strand) [fragment c] | no binding | – | –
P2 control probe (LC14/LC15) (dsDNA) DNA 1: TGTGGTTCGCGTCCATGGGTGTCAGGCGGATGCTTAAGTC DNA 2: GACTTAAGCATCCGCCTGACACCCATGGACGCGAACCACA | – | no binding | –
P1 probe (LC12/LC13) (dsDNA) DNA 1: CGAATGCGGGGACTAGGGATTCTCCTAGTCGACCTTCGTT DNA 2: AACGAAGGTCGACTAGGAGAATCCCTAGTCCCCGCATTCG | – | binds | –
